According to article PMC12691273:
Substitutions are numbered along the chain they refer to. Numbers in names are those of the source. Each block holds one binder with its values, some of them ahead of it.

Target: T1, 14-3-3 protein, Q5ZKC9
T1 chain: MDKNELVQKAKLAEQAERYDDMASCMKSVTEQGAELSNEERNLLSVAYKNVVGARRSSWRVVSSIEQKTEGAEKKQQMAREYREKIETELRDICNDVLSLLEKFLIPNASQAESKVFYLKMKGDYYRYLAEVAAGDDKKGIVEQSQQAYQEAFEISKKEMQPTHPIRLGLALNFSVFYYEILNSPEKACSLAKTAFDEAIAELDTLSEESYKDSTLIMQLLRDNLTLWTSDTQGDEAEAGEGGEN
Assay: co-immunoprecipitation (IP FOXO1, WB 14-3-3), band quantification
Conditions: chain shown with the change; chicken granulosa cells, with 740-Y-P; n = 3; parent: est. 3.7; read off a plot

response: 3.7
B1: chicken forkhead box O1 (FOXO1) wild-type, A0A8V0XGP1 S311A (protein)
chain: MAEAPQLVDIDPDFEPLPRPRSCTWPLPRPEFNPPSSATSSPAPSCGGQPDGAAAAGAAVAVAASGALSADFISNLCLVEESEDFALPPAAAAPPESAACRCGDFSAPEAGCRLHPPGPPPVPPVPPAVAALSPGPVAGQPRKSSSSRRNAWGNLSYADLITKAIESSPEKRLTLSQIYEWMVKSVPYFKDKGDSNSSAGWKNSIRHNLSLHSKFIRVQNEGTGKSSWWMLNPEGGKSGKSPRRRAASMDNNSKFAKSRGRAAKKKASLQSGQEGNGDSPGSQFSKWPASPSSHSNDDFDNWSTFRPRTSANASTISGRLSPILPEQDDLGDGDVHSMVYPSSATKMTSTLPSLSEMSSSENMENLLDNLNLLSPNTSMTVSTQSSSAALMQQTPGYSFASSTTSICSPNPDYRKFTYAQASMNSLPQIPMQTLQDSKSSYGSMSQFNCPAGLLKELLTSDSPPHNDILASVDTGVSQAGGRALGQGVLMVTNSVMPTYGNQPPHNKMMNPNARPHQGHNQPTPAVNGRALSHTVNPMSHTSCLNRLSTVKTSLQVPMSHQMQMNAMNPYAPVNSCNGYGRVGIVSLHQEKLPSDLDDMLIERLDCDMESIIRNDLMDGETLDFNFDSVLPNQSFQHSVKTTTHSWVSG

response: 2.7
B2: chicken forkhead box O1 (FOXO1) wild-type, A0A8V0XGP1 S248A (protein)
chain: B1 chain with S248A, A311S
